Test results taken from publication PMC10022797, “Role of Nesprin-2 and RanBP2 in BICD2-associated brain developmental disorders” (PLOS Genetics, 2023).
Where a chain is given by its changes, count along the chain named. Names and notes keep the numbering of the source. Each block holds one molecule with its values, some of them ahead of it.

T1: BICD2 aa 630–800 (mouse, UniProt Q921C5-1 630-800)
T1 construct: Bicd2 (Bicaudal D2), mouse, aa 630–800, contains the entire predicted CC3 domain; cloned into pet28a (NdeI, XhoI); also called Ms BICD2 aa 630–800
T1 sequence (looked up): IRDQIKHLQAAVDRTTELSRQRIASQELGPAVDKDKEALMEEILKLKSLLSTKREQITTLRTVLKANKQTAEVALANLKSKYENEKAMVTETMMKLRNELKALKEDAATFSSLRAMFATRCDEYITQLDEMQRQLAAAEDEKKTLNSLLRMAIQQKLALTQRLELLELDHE

B1: GST-His6-BICD2-CT (aa 630–820) wildtype, Q921C5-1 T699M (protein)
chain: IRDQIKHLQAAVDRTTELSRQRIASQELGPAVDKDKEALMEEILKLKSLLSTKREQITTLRTVLKANKQMAEVALANLKSKYENEKAMVTETMMKLRNELKALKEDAATFSSLRAMFATRCDEYITQLDEMQRQLAAAEDEKKTLNSLLRMAIQQKLALTQRLELLELDHEQTRRGRSKAASKAKPASPSL
B2: GST-His6-BICD2-CT (aa 630–820) wildtype, Q921C5-1 L679R (protein)
chain: B1 chain with L50R, M70T
B3: GST-tagged RanBP2 fragment (BICD2 binding domain, aa 2148–2240), on glutathione Sepharose (domain or fragment, human, UniProt P49792 2148-2240, looked up)
chain: DIPLQTPHKLVDTGRAAKLIQRAEEMKSGLKDFKTFLTNDQTKVTEEENKGSGTGAAGASDTTIKPNPENTGPTLEWDNYDLREDALDDSVSS
notes: GST fusion from the pGEX-6P-1 vector; also called GST-RanBP2; BBD; source: E. coli, purified on glutathione Sepharose, not eluted
B4: BICD2-CC3 (aa 711–800), His6-tagged (domain or fragment, mouse, UniProt Q921C5-1 711-800, looked up)
chain: YENEKAMVTETMMKLRNELKALKEDAATFSSLRAMFATRCDEYITQLDEMQRQLAAAEDEKKTLNSLLRMAIQQKLALTQRLELLELDHE
notes: also called Ms BICD2-CC3; source: E. coli LOBSTR-BL21(DE3)-RIL, purified (Ni-NTA)
B5: BICD2-CC3 (residues 711–800), His6 tag removed (domain or fragment, mouse, UniProt Q921C5-1 711-800, looked up)
chain: B4 chain

Legend:
[1] = target: GST-His6-BICD2-CT (aa 630–820) E770G (mouse) (UniProt Q921C5); test: pull-down; GST-His6-BICD2-CT WT or mutant on glutathione magnetic beads, incubated 3 hrs at 4°C with untransfected or GFP-Nesprin-2 expressing HeLaM lysate (RIPA buffer); immunoblot with anti-RanBP2, anti-GFP and anti-GST, signal ratio normalised to wildtype
[2] = target: Purified Nesprin-2 fragment (N2G SR 52–56), used in size exclusion chromatography (mouse) (UniProt Q6ZWQ0); test: SEC; pairwise mixtures, Nesprin-2 or RanBP2 with BICD2-CC3 WT or mutant at 1:2; 1.3 mg Nesprin-2, 0.2 mg RanBP2, 0.4 mg BICD2-CC3; Superdex 200 Increase 10/300 GL; 20 mM HEPES pH 7.5, 150 mM NaCl, 0.5 mM TCEP; bands quantified (Fig 6C-6G, S3, S6)
[3] = target: GST-tagged Nesprin-2 fragment (N2G SR 52–56), on glutathione Sepharose (mouse) (UniProt Q6ZWQ0); test: pull-down; GST-RanBP2 or GST-Nesprin-2 held on glutathione Sepharose (not eluted), purified His6-tagged BICD2 fragment added to the column, washed, eluted; Coomassie-stained SDS-PAGE, bands quantified (3 sets)
[4] = target: GFP tagged Nesprin-2 fragment (GFP-N2G SR), Q6ZWQ0; test: GST pull-down with immunoblot quantification; details: chain shown with the change; GFP-Nesprin-2 expressing HeLaM cell lysate; n = 3; parent: est. 1.0; read off a plot
BICD2 aa 630–800 = target: T1, BICD2 aa 630–800; test: pull-down; GST-RanBP2 or GST-Nesprin-2 held on glutathione Sepharose (not eluted), purified His6-tagged BICD2 fragment added to the column, washed, eluted; Coomassie-stained SDS-PAGE, bands quantified (3 sets); details: both partners purified
[5] = target: T2, RanBP2 fragment (aa 2148–2240), GST cleaved (human, UniProt P49792 2148-2240); test: SEC; competition: Nesprin-2, RanBP2 and BICD2-CC3 WT or mutant mixed at 1:1:2 molar ratio; Superdex 200 Increase 10/300 GL; 20 mM HEPES pH 7.5, 150 mM NaCl, 0.5 mM TCEP (Fig 6L, 6M, S3I, S3J); details: both partners purified
T2 construct: expressed as GST fusion from the pGEX-6P-1 vector; also called Hs RanBP2 (aa 2148–2240); BBD

[6] = target: B3; test: pull-down; GST-RanBP2 or GST-Nesprin-2 held on glutathione Sepharose (not eluted), purified His6-tagged BICD2 fragment added to the column, washed, eluted; Coomassie-stained SDS-PAGE, bands quantified (3 sets); details: both partners purified
[7] = target: T2, RanBP2 fragment (aa 2148–2240), GST …; test: SEC; pairwise mixtures, equimolar; Superdex 200 Increase 10/300 GL; 20 mM HEPES pH 7.5, 150 mM NaCl, 0.5 mM TCEP, 1 mM MgCl2; 1.3 mg Nesprin-2, 0.2 mg RanBP2, 0.2 mg BICD2-CC3; fractions on SDS-PAGE (Fig 2D, 2E); details: both partners purified

fold change in GFP-Nesprin-2 binding against wildtype BICD2-CT [1]: 6 fold
Molecule: GFP tagged Nesprin-2 fragment (GFP-N2G SR) (from UniProt Q6ZWQ0 1-6874) (domain or fragment)

percent of BICD2-CC3 that co-elutes with Nesprin-2 [2]: 23%
Molecule: BICD2-CC3 (aa 711–800), His6-tagged (from UniProt Q921C5-1 711-800) (domain or fragment)

percent of BICD2-CC3 that co-elutes with Nesprin-2 [2]: 94%
Molecule: BICD2-CC3 (aa 711–800) F739I/R743C (from UniProt Q921C5-1 711-800) (domain or fragment)

amount of bound molecules compared to the longer fragments (aa 630–800 and 711–800) [3]: 73%
Molecule: BICD2 aa 750–800 (from UniProt Q921C5-1 750-800) (domain or fragment)

Molecule: B1
ratio to parent [4]: 0.53

Molecule: B2
ratio to parent [4]: 2.7

Molecule: B3
binding result (BICD2 aa 630–800): binds

Molecule: B4
binding result [5]: binds
binding result [6]: binds

Molecule: B5
binding result [7]: binds
